Reference: patent US20090016988A1

What was measured:
[1] = target: MPPT3 (proaerolysin with a uPA cleavage site in the activation sequence, an AFAI antibody fragment attached by a uPA-cleavable linker, and a His tag) (Aeromonas hydrophila); experiment: cell-based or functional assay
[2] = target: MPPT2 (proaerolysin with a uPA cleavage site in the activation sequence, an N-terminal AFAI antibody fragment and a His tag) (Aeromonas hydrophila); experiment: cell-based or functional assay

## urokinase-type plasminogen activator (uPA) (enzyme)
[1]
  Hemolytic activity after 60 minutes (horse red blood cells, after uPA digestion) (hemolytic titer (wells showing lysis)): 8
[2]
  Hemolytic activity after 60 minutes (horse red blood cells, after uPA digestion) (hemolytic titer (wells showing lysis)): 4.5
